Measurements taken from IntAct's records for PubMed 17981123.

B1: Serine endoprotease DegS (Escherichia coli (strain K12)), P0AEE3 (parent)
chain: MFVKLLRSVAIGLIVGAILLVAMPSLRSLNPLSTPQFDSTDETPASYNLAVRRAAPAVVNVYNRGLNTNSHNQLEIRTLGSGVIMDQRGYIITNKHVINDADQIIVALQDGRVFEALLVGSDSLTDLAVLKINATGGLPTIPINARRVPHIGDVVLAIGNPYNLGQTITQGIISATGRIGLNPTGRQNFLQTDASINHGNSGGALVNSLGELMGINTLSFDKSNDGETPEGIGFAIPFQLATKIMDKLIRDGRVIRGYIGIGGREIAPLHAQGGGIDQLQGIVVNEVSPDGPAANAGIQVNDLIISVDNKPAISALETMDQVAEIRPGSVIPVVVMRDDKQLTLQVTIQEYPATN
partner: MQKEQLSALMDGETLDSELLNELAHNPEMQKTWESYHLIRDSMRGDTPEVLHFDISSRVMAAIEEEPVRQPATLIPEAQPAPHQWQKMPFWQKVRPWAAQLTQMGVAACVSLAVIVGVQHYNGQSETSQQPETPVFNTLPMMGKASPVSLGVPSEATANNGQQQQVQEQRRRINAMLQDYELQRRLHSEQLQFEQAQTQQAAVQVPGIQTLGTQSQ

Variants of: B1
Conditions: with rsea_ecoli rseA

effect of a mutation on the interaction	Variant
increasing interaction	E227A
disrupting interaction	Y162A
decreasing interaction	R178A
decreasing interaction	R256D

Second part, the variant before the results:

Variant	effect of a mutation on the interaction
D122A	decreasing interaction
D320A	increasing interaction
Y162F	decreasing interaction
K243D	increasing interaction
R256A	increasing interaction
